Measurements published in paper doi:10.1101/2024.10.29.620959.

Columns and labels:
[1] = molecular target: Mycobacterium tuberculosis FadD5 (fatty acyl-CoA synthetase, Rv0166), full length (Mycobacterium tuberculosis H37Rv); test: SAXS
[2] = molecular target: Mycobacterium tuberculosis FadD5 (fatty acyl-CoA synthetase, Rv0166), full length (Mycobacterium tuberculosis H37Rv); test: SEC-MALS
[3] = molecular target: Mycobacterium tuberculosis FadD5 (fatty acyl-CoA synthetase, Rv0166), full length (Mycobacterium tuberculosis H37Rv); test: native gel or EMSA
[4] = molecular target: FadD5(1-448), N-terminal domain construct of Mycobacterium tuberculosis FadD5 (Mycobacterium tuberculosis H37Rv); test: SEC-MALS

Row | Substance | stoichiometry N [1] | stoichiometry N [2] | stoichiometry N [3] | stoichiometry N [4]
1 | Mycobacterium tuberculosis FadD5 (fatty acyl-CoA synthetase, Rv0166), full length (enzyme) | 2 | 2 | 2 | –
2 | FadD5(1-448), N-terminal domain construct of Mycobacterium tuberculosis FadD5 (domain or fragment) | – | – | – | 2
